Data set [1] addresses T1, GST-HvABI5 (Hordeum vulgare, UniProt Q8GTR6 1-353).
T1 sequence: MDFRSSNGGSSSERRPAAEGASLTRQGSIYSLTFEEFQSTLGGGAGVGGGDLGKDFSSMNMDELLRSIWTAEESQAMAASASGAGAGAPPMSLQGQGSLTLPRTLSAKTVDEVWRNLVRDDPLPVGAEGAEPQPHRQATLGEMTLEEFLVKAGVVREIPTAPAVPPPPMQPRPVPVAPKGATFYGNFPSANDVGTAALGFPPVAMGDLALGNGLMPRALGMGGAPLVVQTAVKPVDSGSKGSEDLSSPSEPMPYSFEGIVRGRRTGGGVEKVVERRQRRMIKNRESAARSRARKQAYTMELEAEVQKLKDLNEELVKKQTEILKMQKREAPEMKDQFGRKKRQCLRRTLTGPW
The data set is described as follows: EMSA; DIG Gel Shift Kit 2nd Generation (Roche), manufacturer's conditions; buffer, salt, pH and temperature not stated. Particulars: protein: recombinant; tags: N-terminal GST (pGEX); chain copies: 2; label: DIG; blunt. A general note: In EMSA bound probe runs differently from free probe, usually more slowly.

Data set [2] concerns the target T1, GST-HvABI5. The data set is described as follows: competition; 100x molar excess unlabeled competitor vs DIG-labeled N1; DIG Gel Shift Kit 2nd Generation (Roche), manufacturer's conditions; buffer, salt, pH and temperature not stated. Particulars: protein: recombinant; tags: N-terminal GST (pGEX); chain copies: 2; label: none; blunt.

Two molecules from paper PMC5359625, “The Interrelationship between Abscisic Acid and Reactive Oxygen Species Plays a Key Role in Barley Seed Dormancy and Germination” can be followed below.

B1: HvCAT2-probe (HvCAT2 promoter, ABRE) (dsDNA)
DNA 1: CACACACACGCACTACGTTCCGAGCATTGCGTCGCGGTGGGTGAG
DNA 2: CTCACCCACCGCGACGCAATGCTCGGAACGTAGTGCGTGTGTGTG
Take B1: the binding result with GST-HvABI5 [1] is given as “binds”.

B2: unlabeled HvCAT2 probe competitor (dsDNA)
DNA 1: CACACACACGCACTACGTTCCGAGCATTGCGTCGCGGTGGGTGAG
DNA 2: CTCACCCACCGCGACGCAATGCTCGGAACGTAGTGCGTGTGTGTG
Regarding B2, the binding result in the data set with GST-HvABI5 [2] is “binds”.
